Assay results reported in publication PMC4881023, “SALM5 trans-synaptically interacts with LAR-RPTPs in a splicing-dependent manner to regulate synapse development” (Scientific Reports, 2016).
Each block holds one molecule with its values, some of them ahead of it.

How the values were obtained:
[1] = biological target: SALM5 (untagged) (not stated (mouse and human SALM5 are named for other constructs)) (UniProt Q8BXA0); test: quantitative cell-surface binding assay (HRP anti-human Fc, Scatchard analysis); apparent; SALM5 (untagged)-expressing HEK293T cells in 96-well plates, fixed, incubated with increasing concentrations of LAR-Ecto-Fc for 1 hour, HRP-conjugated anti-human-Fc, TMB colour reaction
Chain of SALM5 (untagged) (not stated (mouse and human SALM5 are named for other constructs)) (Q8BXA0 18-719): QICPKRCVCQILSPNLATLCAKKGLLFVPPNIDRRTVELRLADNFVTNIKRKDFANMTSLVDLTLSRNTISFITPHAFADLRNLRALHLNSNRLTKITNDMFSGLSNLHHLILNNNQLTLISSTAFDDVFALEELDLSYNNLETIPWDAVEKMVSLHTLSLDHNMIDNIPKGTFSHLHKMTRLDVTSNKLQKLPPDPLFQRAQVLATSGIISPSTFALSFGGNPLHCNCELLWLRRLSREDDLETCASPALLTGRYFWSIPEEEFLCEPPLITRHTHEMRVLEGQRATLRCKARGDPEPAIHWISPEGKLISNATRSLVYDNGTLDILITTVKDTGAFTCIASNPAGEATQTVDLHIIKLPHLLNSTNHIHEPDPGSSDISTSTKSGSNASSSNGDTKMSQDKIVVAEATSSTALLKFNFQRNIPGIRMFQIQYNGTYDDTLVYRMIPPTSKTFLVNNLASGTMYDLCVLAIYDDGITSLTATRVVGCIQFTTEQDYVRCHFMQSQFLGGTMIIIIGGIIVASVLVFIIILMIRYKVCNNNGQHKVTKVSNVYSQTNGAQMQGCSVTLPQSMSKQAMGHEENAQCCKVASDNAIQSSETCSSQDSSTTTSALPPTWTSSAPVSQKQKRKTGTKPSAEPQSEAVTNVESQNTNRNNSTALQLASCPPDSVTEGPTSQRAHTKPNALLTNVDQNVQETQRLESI

[2] = biological target: T1, LAR-Ig (Ig1-3)-Fc of the BLI (human, UniProt P10586 30-318); test: BLI; BLItz; 10 μM LAR-Ig (Ig1-3)-Fc or LAR-FN12-Fc immobilised on protein A biosensors for 120 s, hybrid SALM5-Ecto as analyte at three concentrations; 20 mM HEPES, 50 mM NaCl, pH 7.0; global fit; details: both partners purified
T1 chain: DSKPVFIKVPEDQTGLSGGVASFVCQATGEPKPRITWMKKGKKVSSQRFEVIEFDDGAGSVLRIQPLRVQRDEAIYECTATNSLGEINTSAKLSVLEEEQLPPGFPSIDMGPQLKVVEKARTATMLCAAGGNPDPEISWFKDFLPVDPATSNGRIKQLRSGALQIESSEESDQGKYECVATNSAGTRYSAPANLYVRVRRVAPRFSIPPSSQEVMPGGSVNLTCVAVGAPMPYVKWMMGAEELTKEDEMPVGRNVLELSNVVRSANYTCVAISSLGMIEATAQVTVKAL

hySALM5-Ecto-Fc = biological target: T2, hySALM5-Ecto-Fc ( | human, UniProt Q96NI6 59-374); test: BLI; BLItz; hySALM5-Ecto-Fc pre-bound to protein A biosensors, LAR-Ig-FN12 as analyte at three concentrations; 20 mM HEPES, 50 mM NaCl, pH 7.0; global fit; details: both partners purified
T2 chain: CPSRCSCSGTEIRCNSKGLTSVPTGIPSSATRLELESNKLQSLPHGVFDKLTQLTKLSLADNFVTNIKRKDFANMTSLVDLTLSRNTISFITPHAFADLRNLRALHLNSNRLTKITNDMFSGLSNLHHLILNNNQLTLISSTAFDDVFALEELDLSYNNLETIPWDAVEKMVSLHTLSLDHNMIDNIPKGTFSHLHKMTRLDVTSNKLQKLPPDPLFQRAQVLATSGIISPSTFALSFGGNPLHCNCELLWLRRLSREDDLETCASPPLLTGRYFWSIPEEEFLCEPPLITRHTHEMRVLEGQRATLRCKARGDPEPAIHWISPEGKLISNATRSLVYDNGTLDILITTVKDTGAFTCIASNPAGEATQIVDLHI

Kd [1]: 0.00896 µM
Molecule: LAR-Ecto-Fc (meA^− and meB^−) (from UniProt P10586 30-1263) (Fc fusion)

Kd [2]: 16.6 µM
B1: hySALM5-Ecto (hybrid SALM5, LRR + Ig domains), tag cleaved (domain or fragment)
chain: CPSRCSCSGTEIRCNSKGLTSVPTGIPSSATRLELESNKLQSLPHGVFDKLTQLTKLSLADNFVTNIKRKDFANMTSLVDLTLSRNTISFITPHAFADLRNLRALHLNSNRLTKITNDMFSGLSNLHHLILNNNQLTLISSTAFDDVFALEELDLSYNNLETIPWDAVEKMVSLHTLSLDHNMIDNIPKGTFSHLHKMTRLDVTSNKLQKLPPDPLFQRAQVLATSGIISPSTFALSFGGNPLHCNCELLWLRRLSREDDLETCASPPLLTGRYFWSIPEEEFLCEPPLITRHTHEMRVLEGQRATLRCKARGDPEPAIHWISPEGKLISNATRSLVYDNGTLDILITTVKDTGAFTCIASNPAGEATQIVDLHI
modifications: VLRB.61 printed as M1-L82; signal peptide (1-23) taken as removed on secretion; hagfish accession not among the candidates; LVPR residue left by thrombin cleavage omitted / A-B- form taken as stated …

Kd (hySALM5-Ecto-Fc): 38.5 µM
B2: LAR-Ig-FN12 (Ig1-3-FNIII12, aa 27A–513A) (domain or fragment)
chain: AHGDSKPVFIKVPEDQTGLSGGVASFVCQATGEPKPRITWMKKGKKVSSQRFEVIEFDDGAGSVLRIQPLRVQRDEAIYECTATNSLGEINTSAKLSVLEEEQLPPGFPSIDMGPQLKVVEKARTATMLCAAGGNPDPEISWFKDFLPVDPATSNGRIKQLRSGALQIESSEESDQGKYECVATNSAGTRYSAPANLYVRVRRVAPRFSIPPSSQEVMPGGSVNLTCVAVGAPMPYVKWMMGAEELTKEDEMPVGRNVLELSNVVRSANYTCVAISSLGMIEATAQVTVKALPKPPIDLVVTETTATSVTLTWDSGNSEPVTYYGIQYRAAGTEGPFQEVDGVATTRYSIGGLSPFSEYAFRVLAVNSIGRGPPSEAVRARTGEQAPSSPPRRVQARMLSASTMLVQWEPPEEPNGLVRGYRVYYTPDSRRPPNAWHKHNTDAGLLTTVGSLLPGITYSLRVLAFTAVGDGPPSPTIQVKTQQGVPA
modifications: splice form not given; A-B- form taken because the printed limits fit the P10586 numbering (no meA, no meB) / C-terminal Fc carrier omitted (the Fc would dimerise the chain); VLRB.61 signal peptide
